Reference: the supplement of paper PMC10724198
± gives the standard deviation of the averaged measurements.

How the values were obtained:
Saccharomyces cerevisiae [1] = experiment: protein stability index of tFT-peptide fusion (C-terminal peptide) (PSI (0-1 scale)); higher = more stable (slower turnover)
Protocol: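 MPS profiling in S. cerevisiae of the tFT-X12 degron library: putative degron peptides plus stable controls, 12 aa, fused to the C-terminus of a sfGFP-mCherry timer. Cells are FACS-sorted into 8 mCherry/sfGFP bins and deep-sequenced. PSI runs from 0 (unstable) to 1 (stable). Backgrounds are wild type, das1Δ and doa10Δ at 30 °C, and wild type, das1Δ, cdc34-1 and cdc53-1 at 37 °C; 2-3 technical replicates each.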

Saccharomyces cerevisiae [2] = experiment: as above; conditions: genetic background: wild type; temperature: 30 C
[3] = genetic background: cdc34-1, temperature: 37 C
[4] = genetic background: cdc53-1, temperature: 37 C
[5] = genetic background: das1 deletion, temperature: 30 C
[6] = genetic background: das1 deletion, temperature: 37 C
[7] = genetic background: doa10 deletion, temperature: 30 C
[8] = genetic background: wild type, temperature: 30 C
[9] = genetic background: wild type, temperature: 37 C
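Note: PSI is a weighted mean of sequencing reads over stability bins, variants kept only with over 10 reads, mCherry proximal and sfGFP distal, peptide attached via GGGS linker.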

Row | Sequence | protein stability index (Saccharomyces cerevisiae [1]; [3]) | protein stability index (Saccharomyces cerevisiae [1]; [4]) | protein stability index (Saccharomyces cerevisiae [1]; [5]) | protein stability index (Saccharomyces cerevisiae [1]; [6]) | protein stability index (Saccharomyces cerevisiae [1]; [7]) | protein stability index (Saccharomyces cerevisiae [1]; [8]) | protein stability index (Saccharomyces cerevisiae [1]; [9]) | protein stability index (Saccharomyces cerevisiae [2])
1 | SFIVGYRWNNRN | 0.672 ± 0.018 | 0.738 ± 0.035 | 0.647 ± 0.015 | 0.7542 ± 0.0063 | 0.337 ± 0.033 | 0.378 ± 0.0046 | 0.5776 ± 0.0018 | 0.443 ± 0.047
2 | ALLYIVVGWSLS | 0.0455 ± 0.011 | 0.185 ± 0.033 | 0.167 ± 0.026 | 0.285 ± 0.025 | 0.12 ± 0.019 | 0.145 ± 0.027 | 0.231 ± 0.0024 | 0.24 ± 0.074
3 | ARFFFFCVGILI | 0.379 ± 0.0081 | 0.474 ± 0.067 | 0.339 ± 0.066 | 0.503 ± 0.046 | 0.295 ± 0.035 | 0.354 ± 0.017 | 0.4581 ± 0.0031 | 0.378 ± 0.035
4 | SQKKKIKKYKET | 0.574 ± 0.032 | 0.665 ± 0.14 | 0.644 ± 0.032 | 0.706 ± 0.018 | 0.172 ± 0.0036 | 0.147 ± 0.041 | 0.208 ± 0.049 | 0.217 ± 0.033
5 | GQLIYQHIFILG | 0.662 ± 0.063 | 0.6481 ± 0.0016 | 0.47 ± 0.011 | 0.676 ± 0.025 | 0.312 ± 0.021 | 0.353 ± 0.021 | 0.5677 ± 0.0052 | 0.4678 ± 0.00024
6 | NVVIGLHLLVYI | 0.205 ± 0.021 | 0.313 ± 0.041 | 0.212 ± 0.047 | 0.419 ± 0.017 | 0.189 ± 0.022 | 0.227 ± 0.014 | 0.388 ± 0.018 | 0.326 ± 0.049
7 | DNLYSLEFMAIR | 0.719 ± 0.04 | 0.78 ± 0.016 | 0.647 ± 0.021 | 0.7875 ± 0.0042 | 0.655 ± 0.025 | 0.645 ± 0.012 | 0.7796 ± 0.004 | 0.566 ± 0.19
8 | WAIMGLIIFCLF | 0.309 ± 0.0083 | 0.363 ± 0.031 | 0.3 ± 0.035 | 0.438 ± 0.015 | 0.222 ± 0.0086 | 0.244 ± 0.022 | 0.353 ± 0.012 | 0.329 ± 0.022
9 | NHKNANAATLIN | 0.645 ± 0.053 | 0.7192 ± 0.0061 | 0.641 ± 0.036 | 0.7266 ± 0.0038 | 0.268 ± 0.016 | 0.352 ± 0.038 | 0.6016 ± 0.0051 | 0.4548 ± 0.0018
10 | FLCVLYFFLCVE | 0.218 ± 0.00042 | 0.3209 ± 0.0031 | 0.253 ± 0.03 | 0.404 ± 0.055 | 0.195 ± 0.01 | 0.224 ± 0.015 | 0.334 ± 0.022 | 0.417 ± 0.18
11 | SSGRLRFISRIH | 0.654 ± 0.033 | 0.7064 ± 0.0053 | 0.656 ± 0.048 | 0.7487 ± 0.0033 | 0.316 ± 0.019 | 0.347 ± 0.018 | 0.5972 ± 0.0037 | 0.454 ± 0.027
12 | WRVFRPSLRLFA | 0.531 ± 0.04 | 0.61 ± 0.018 | 0.467 ± 0.017 | 0.598 ± 0.012 | 0.287 ± 0.0051 | 0.33 ± 0.021 | 0.507 ± 0.036 | 0.393 ± 0.051
13 | FSSRVFLIVGIY | 0.45 ± 0.015 | 0.614 ± 0.05 | 0.33 ± 0.029 | 0.538 ± 0.021 | 0.2266 ± 0.0017 | 0.27 ± 0.023 | 0.4874 ± 0.0027 | 0.427 ± 0.025
14 | LCWLVHFFLWVS | 0.35 ± 0.081 | 0.431 ± 0.0079 | 0.312 ± 0.024 | 0.442 ± 0.023 | 0.253 ± 0.013 | 0.238 ± 0.017 | 0.393 ± 0.0092 | 0.288 ± 0.018
15 | SFGLICFLILCG | 0.218 ± 0.0065 | 0.218 ± 0.052 | 0.206 ± 0.03 | 0.372 ± 0.038 | 0.173 ± 0.023 | 0.205 ± 0.014 | 0.301 ± 0.0073 | 0.2964 ± 0.00086
16 | IWYGLFWLRFWV | 0.513 ± 0.044 | 0.572 ± 0.018 | 0.497 ± 0.018 | 0.586 ± 0.015 | 0.444 ± 0.018 | 0.423 ± 0.023 | 0.5368 ± 0.0047 | 0.51 ± 0.055
17 | RSKWEKLDKIVS | 0.675 ± 0.032 | 0.777 ± 0.045 | 0.629 ± 0.051 | 0.681 ± 0.0091 | 0.314 ± 0.022 | 0.396 ± 0.047 | 0.575 ± 0.018 | 0.455 ± 0.0083

Row | Sequence | protein stability index (Saccharomyces cerevisiae [1]; [3]) | protein stability index (Saccharomyces cerevisiae [1]; [4]) | protein stability index (Saccharomyces cerevisiae [1]; [5]) | protein stability index (Saccharomyces cerevisiae [1]; [6]) | protein stability index (Saccharomyces cerevisiae [1]; [7]) | protein stability index (Saccharomyces cerevisiae [1]; [8]) | protein stability index (Saccharomyces cerevisiae [1]; [9]) | protein stability index (Saccharomyces cerevisiae [2])
18 | FLTSPSVWRYLF | 0.623 ± 0.026 | 0.7196 ± 0.0049 | 0.693 ± 0.032 | 0.755 ± 0.0045 | 0.125 ± 0.046 | 0.139 ± 0.017 | 0.227 ± 0.017 | 0.153 ± 0.036
19 | VCVVVLVGVVFL | 0.188 ± 0.031 | 0.3491 ± 0.0012 | 0.237 ± 0.02 | 0.3828 ± 0.0025 | 0.198 ± 0.0055 | 0.24 ± 0.031 | 0.314 ± 0.0088 | 0.3 ± 0.036
20 | LVLGVEVCFVLG | 0.102 ± 0.0073 | 0.16 ± 0.011 | 0.177 ± 0.033 | 0.296 ± 0.0065 | 0.147 ± 0.012 | 0.168 ± 0.032 | 0.246 ± 0.022 | 0.273 ± 0.015
21 | EERKIFLKVVKV | 0.545 ± 0.036 | 0.496 ± 0.016 | 0.398 ± 0.025 | 0.5748 ± 0.0007 | 0.218 ± 0.021 | 0.305 ± 0.027 | 0.4656 ± 0.0028 | 0.463 ± 0.0094
22 | LLPSPLLLYSLS | 0.556 ± 0.03 | 0.578 ± 0.019 | 0.434 ± 0.022 | 0.6022 ± 0.0024 | 0.3814 ± 0.0018 | 0.412 ± 0.017 | 0.562 ± 0.015 | 0.451 ± 0.028
23 | VLVVTAFTFSCP | 0.352 ± 0.049 | 0.4393 ± 0.00063 | 0.327 ± 0.018 | 0.416 ± 0.022 | 0.319 ± 0.015 | 0.317 ± 0.015 | 0.392 ± 0.02 | 0.324 ± 0.0049
24 | CFSIPLVILNVL | 0.468 ± 0.018 | 0.496 ± 0.02 | 0.431 ± 0.018 | 0.531 ± 0.025 | 0.335 ± 0.0063 | 0.338 ± 0.02 | 0.455 ± 0.0097 | 0.413 ± 0.0076
25 | ARKWVAVTVTLW | 0.137 ± 0.038 | 0.232 ± 0.013 | 0.187 ± 0.036 | 0.3519 ± 0.00085 | 0.148 ± 0.021 | 0.189 ± 0.029 | 0.317 ± 0.011 | 0.267 ± 0.043
26 | ILFRRRLCCFLK | 0.349 ± 0.03 | 0.434 ± 0.0052 | 0.443 ± 0.019 | 0.536 ± 0.012 | 0.506 ± 0.021 | 0.396 ± 0.018 | 0.484 ± 0.021 | 0.4735 ± 0.0015
27 | LGRYHPWLLFLC | 0.261 ± 0.011 | 0.451 ± 0.021 | 0.457 ± 0.035 | 0.614 ± 0.0077 | 0.0687 ± 0.016 | 0.0711 ± 0.025 | 0.104 ± 0.0076 | 0.114 ± 0.027
28 | KRNLLYNIIVWI | 0.404 ± 0.024 | 0.476 ± 0.051 | 0.357 ± 0.025 | 0.524 ± 0.021 | 0.171 ± 0.0049 | 0.179 ± 0.016 | 0.288 ± 0.0061 | 0.299 ± 0.046
29 | VVWFCGFFFVMV | 0.386 ± 0.0054 | 0.449 ± 0.029 | 0.356 ± 0.036 | 0.509 ± 0.016 | 0.365 ± 0.031 | 0.325 ± 0.03 | 0.465 ± 0.012 | 0.399 ± 0.032
30 | KFKRLTKFYARQ | 0.555 ± 0.031 | 0.684 ± 0.029 | 0.676 ± 0.032 | 0.618 ± 0.011 | 0.108 ± 0.0012 | 0.132 ± 0.027 | 0.334 ± 0.017 | 0.311 ± 0.0089
31 | SREQANTVYRLI | 0.689 ± 0.011 | 0.7132 ± 0.0048 | 0.631 ± 0.018 | 0.7187 ± 0.0036 | 0.254 ± 0.0066 | 0.3 ± 0.0074 | 0.553 ± 0.0053 | 0.376 ± 0.008
32 | CVILVVISGLLG | 0.166 ± 0.035 | 0.315 ± 0.039 | 0.199 ± 0.039 | 0.3938 ± 0.0035 | 0.178 ± 0.013 | 0.217 ± 0.03 | 0.3491 ± 0.0021 | 0.345 ± 0.078
33 | KKKKNIKIKKQI | 0.74 ± 0.17 | – | 0.646 ± 0.034 | 0.711 ± 0.084 | 0.184 ± 0.025 | 0.215 ± 0.023 | 0.336 ± 0.12 | 0.276 ± 0.054
